# Experimental data taken from patent US20240043549A1 (ALS THERAPY DEVELOPMENT INSTITUTE, published 2024).
# T1: low affinity immunoglobulin gamma fc region receptor IIIB (FCGR3B) (CD16b) (human, UniProt O75015 17-200)
# T1 construct: Bought recombinant human protein (Santa Cruz Biotechnology); also called FCR3B
# T1 chain: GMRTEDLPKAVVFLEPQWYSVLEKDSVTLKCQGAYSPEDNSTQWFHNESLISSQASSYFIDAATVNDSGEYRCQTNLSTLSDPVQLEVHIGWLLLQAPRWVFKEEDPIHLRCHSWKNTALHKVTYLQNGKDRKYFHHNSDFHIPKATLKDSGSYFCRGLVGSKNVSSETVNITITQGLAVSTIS
# T2: low affinity immunoglobulin gamma fc region receptor IIA (FCGR2A) (CD32) (human, UniProt P12318 34-217)
# T2 construct: Bought recombinant human protein (Santa Cruz Biotechnology); also called FCGR2A receptor
# T2 sequence: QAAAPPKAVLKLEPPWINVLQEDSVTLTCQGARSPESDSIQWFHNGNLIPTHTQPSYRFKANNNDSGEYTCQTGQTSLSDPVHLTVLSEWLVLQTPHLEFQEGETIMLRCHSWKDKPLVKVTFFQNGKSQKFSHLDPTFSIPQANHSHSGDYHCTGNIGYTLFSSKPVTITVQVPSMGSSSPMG
# B1: hu5c8 antibody (antibody, human IgG1)
# heavy: not shown
# VL: DIVLTQSPATLSVSPGERATISCRASQRVSSSTYSYMHWYQQKPGQPPKLLIKYASNLESGVPARFSGSGSGTDFTLTISSVEPEDFATYYCQHSWEIPPTFGGGTKLEIK
# notes: Humanized 5c8, IgG1; no full light chain entry is named for it; also called parental antibody hu5c8; hu5c8-IgG1
# B2: JB5 antibody (antibody)
# heavy: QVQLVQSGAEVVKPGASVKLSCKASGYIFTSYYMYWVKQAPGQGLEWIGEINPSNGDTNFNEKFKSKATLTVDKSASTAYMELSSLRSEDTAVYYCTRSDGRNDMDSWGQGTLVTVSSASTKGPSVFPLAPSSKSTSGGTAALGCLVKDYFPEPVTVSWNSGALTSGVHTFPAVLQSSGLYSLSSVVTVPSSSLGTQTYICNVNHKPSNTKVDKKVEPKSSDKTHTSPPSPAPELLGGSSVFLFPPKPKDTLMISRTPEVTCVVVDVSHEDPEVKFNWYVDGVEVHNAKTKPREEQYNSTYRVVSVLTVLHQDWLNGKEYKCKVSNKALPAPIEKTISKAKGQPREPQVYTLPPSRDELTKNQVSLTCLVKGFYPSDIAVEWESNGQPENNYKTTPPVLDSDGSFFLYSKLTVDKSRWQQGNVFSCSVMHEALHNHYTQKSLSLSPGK
# light: DIVLTQSPATLSVSPGERATISCRASQRVSSSTYSYMHWYQQKPGQPPKLLIKYASNLESGVPARFSGSGSGTDFTLTISSVEPEDFATYYCQHSWEIPPTFGGGTKLEIKRTVAAPSVFIFPPSDEQLKSGTASVVCLLNNFYPREAKVQWKVDNALQSGNSQESVTEQDSKDSTYSLSSTLTLSKADYEKHKVYACEVTHQGLSSPVTKSFNRGEC
# notes: The text mostly prints the name as 'JBS'; also called JBS (OCR spelling of JB5 in the text); mutant JBS antibody
# How the values were obtained:
# Test in all cases: solid phase ELISA, antibody coated, FCGR titrated
# [1] = biological target: T3, low affinity immunoglobulin gamma fc region receptor IIIA (FCGR3A) (CD16a) (human, UniProt P08637 17-208)
# T3 construct: Bought recombinant human protein (Santa Cruz Biotechnology); also called FCR3A
# T3 sequence (P08637 17-208 limits assumed): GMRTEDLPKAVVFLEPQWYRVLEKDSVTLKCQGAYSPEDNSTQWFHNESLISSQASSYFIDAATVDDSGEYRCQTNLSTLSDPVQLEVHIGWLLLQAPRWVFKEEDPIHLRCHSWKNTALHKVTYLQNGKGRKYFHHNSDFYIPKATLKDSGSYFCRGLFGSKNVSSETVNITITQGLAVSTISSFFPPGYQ
# Method: (§1) The plate was blocked and recombinant human Fe gamma receptor (FCGR) proteins (Santa Cruz Biotechnology, Santa Cruz, California) titrated by 2-fold dilution with a starting concentration of 5 μg/ml. […] After binding and washing, the FCGR was detected using an appropriate FCGR isoform specific murine monoclonal antibody (1000 ng/ml) and a horseradish peroxidase conjugate goat anti-mouse IgG detector antibody.
# (§2) The plate was blocked and recombinant human Fe gamma receptor (FCGR) proteins (Santa Cruz Biotechnology, Santa Cruz, California) titrated onto by 2-fold dilution with a starting concentration of 5 μg/ml.
# [2] = biological target: T1, low affinity immunoglobulin gamma fc …
# Method: as §1, §2
# [3] = biological target: T4, high affinity Fc region of IgG receptor IA (FCGR1A) (CD64) (human, UniProt P12314 16-292)
# T4 construct: Bought recombinant human protein (Santa Cruz Biotechnology)
# T4 sequence (P12314 16-292 limits assumed): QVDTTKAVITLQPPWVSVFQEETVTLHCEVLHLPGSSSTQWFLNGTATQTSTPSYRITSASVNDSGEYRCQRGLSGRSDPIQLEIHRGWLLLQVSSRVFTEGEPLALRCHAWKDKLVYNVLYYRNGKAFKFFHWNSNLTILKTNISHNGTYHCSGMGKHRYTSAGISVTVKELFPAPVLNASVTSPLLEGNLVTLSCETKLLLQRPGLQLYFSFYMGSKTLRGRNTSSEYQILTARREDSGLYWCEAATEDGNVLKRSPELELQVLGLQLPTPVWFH
# Method: as §1, §2
# [4] = biological target: T2, low affinity immunoglobulin gamma fc …
# Method: as §1, §2
binder,measurement,setting,value
B1,binding result,[1],no binding (tested: FCGR titrated from 5 µg/ml)
same,binding result,[2],no binding (tested: FCGR titrated from 5 µg/ml)
B2,binding result,[3],no binding (tested: FCGR titrated from 5 µg/ml)
same,binding result,[4],no binding (tested: FCGR titrated from 5 µg/ml)
same,binding result,[1],no binding (tested: FCGR titrated from 5 µg/ml)
same,binding result,[2],no binding (tested: FCGR titrated from 5 µg/ml)
